Results taken from the DeepSol protein solubility set.

Test: soluble on expression in E. coli; label from the status in PepcDB or PDB records

Sequence | soluble on expression in E. coli
MNKERQDLSGLEAVWLFGYGSLIYKVDFPYLERAAASIQGWSRRFWQGSHDHRGTPEAPGRVLTLTETPGEECTGMAYKVSPDVFEHLDHREKNGYLRFTTPMSFRDGSQQEGLVYIATEDNEAFLGEATASEIASHIARSSGPSGPNAEYLVKLQLALQQLGVNDPHITQVYEALMADRASLEHHHHHH | soluble
MNKLLSYYQKELAFLRKQGIEFAKKYPKVARRLGYNQGGSEDPHVQRLTESFAFLSSKIHQRLDEDLPELMEALLRNLAPQFLYNYPSSCIVSFEPDRKSSGITSTYRVPSGTSLYSRYKYKTICQFRTVYPLTIVPATVNKARIHYDNSSSLWKIELNLDVFDGANFSLDFVRFYLNGPATVTGIIYTLLCDEVDNIVLQRNNDVLYDISANISGAGFYESEVTLPQKGNVSYIHNLILDYFSFPERFNFIDIEFDSGIELCSGDSVRIEITLKSSAEKYEPDRIERNVSERLFKVNCSPVVNLFEKKTEPLRLSDGQDEYQVNTDLYSRNEVLIWDINKVTLHRYENDIVKQFPLKNLFGLEHSVIKQSCNIFWHSSCYRSSSERGNFEESVYIRLSDDGGAQSCIMTGDVLSIDAICTNGNIPSSINNGDPDGDFDCDIDIAQLRITALNRPSRMLPAMALKGMNWRIVSQLSLNFVLLSGTDGAMKLREMLSIYNYNNNHSISIFIEWIKELQITPVSSRLPGIYPPVTARGIDITVTLSKDADMHPECFMFCSFLDHFLGLHAPVNSFTRMITVIEHEEHTRRVWPIRAGKLTWL | not soluble
MNKPVAIFLMGPTASGKTDLAIALRKQLPVEVISVDSALIYKEMDIGTAKPTAAELAQAPHRLIDILDPKESYSAMHFHADALHAMADITASGRIPLLVGGTMLYYKALLEGLSPLPSANEHIRTEIEAHANQYGWASLHQQLTQIDPLAASRINANDSQRINRALEVFYLTGKNLTELTAQQGECLPYQVLQFAIAPQERAVLHQRIEQRFHKMMELGFLTEVEKLYARGDLHPDLPAIRCVGYRQMWQHLAGEISLDEAIYKGICATRQLAKRQLTWLRGWRSEITWLDSLDPTSSQEKMIQNLEQNFIKLLEHHHHHH | soluble
MNKQLLSCSLKSGKQVTMVVASVATDGVDQQVEISYYDQKVIGNGSFGVVFLAKLSTTNEMVAIKKVLQDKRFKNRELQIMRKLNHPNIVKLKYFFYSSGEKKDELYLNLILEYVPETVYRVARHYSKQRQQIPMIYVKLYMYQLLRSLAYIHSIGICHRDIKPQNLLIDPESGVLKLCDFGSAKYLVRNEPNVSYICSRYYRAPELIFGATNYTNSIDVWSAGTVMAELLLGQPIFPGDSGVDQLVEIIKVLGTPTREQIQSMNPNYKEFKFPQIKAHPWNKVFRVHTPAEAIDLISKIIEYTPTSRPTPQAACQHAFFDELRNPDARLPSGRPLPTLEMDGPMGTGEVSTTSGDVAGPSA | not soluble
MNKSESRYYATAARMDEAFLTLLAKKDFEYITVKEICEVAGVNRSTFYLHYETMSDLLSESISRINEQFLAYMEKDSDAFSAKLRNCPRDELYLITPDYLTPYLSYIKNNKRLFRTATENAAVLGMDKSYDRMFRHVFTPILDRYGVLQQDRPYIMAFYIRGLMAIISEWLKNDCTDSITYVTGVIQQCVKMPQSETMNAV | not soluble
MNKVWLTGLLTATASGVFSASTLAATEITWWHAMGGQLGETVNQLATDFNASQSDYKLTPVYKGSYTETLTAGIAAFRAGQAPNILQVFDAGAATIMSSKGVAKPVQDLMIESGYPFTAQDYIAGVRNFYADNTGKMVGMPFNSSTPVLYYNKDMLASVNAQAPQTYEQLEQVAAKLAEKGQAGFAQSLTPWIMFENFKSRHNLPLSDKQNGYQDLSTKIMFNSDDMLMHVKKLKEWSDKGYYKYYGSDWDANQTPFERGEVAMWMGSSGSFGGLRNRVKFNLGTTYLPYWESVTKNPTHTFIGGAALFALQGHTPAQDKGVAAFFAYLTKPETQMNWHKTTGYVPVTNAAYDLTKQSGYYQENPDAEVGVKQLSLPDGEWTKGYRLGYYPQVREVMHREFDNIFSGRSTVESSLNKVEDESAKLLNRFARTVQ | not soluble
MNLEKLEVSHDADSLCVVIEISKHSNIKYELDKESGALMVDRVLYGAQNYPANYGFVPNTLGSDGDPVDALVLSDVAFQAGSVVKARLVGVLNMEDESGMDEKLIALPIDKIDPTHSYVKDIDDLSKHTLDKIKHFFETYKDLEPNKWVKVKGFENKESAIKVLEKAIKAYQG | soluble
MNLFEYKLSVVRQVMDKYEVAEEAKFISGLSKGSMVNALSRKKKLPNKEAKFTRYVIYTVDVERIIDMMEEPYRTVIKKRYYDASLDTVKKDFGLQNKREAYFLVKKSVNKFYDLLENYWK | not soluble
MNLIDNHIHTNFSSDGKDSMEDTIKKAISIGVRYLTFTDHLEHDEDRGFCINYNDYVPVFNKFKEKYKKDIELLLGVEVGYRKHLKNEIEEIINSNPFDFVLCSTHTIDNVPVPSKAYFKGLSKEDAYYKYFNSILETNREFGDYNIYGHLDYISRYGIYSDNRVIYNDFKDVIDEVLKSIINNGSGIELNTSGYRYGLNAIHPNEDILKRYKELGGFIVTVGSDSHRVEDICKDFDVAYDMLKYLDFKYVSLFKERETYFVNIEKVKSNNIA | not soluble
MNLQHHFLIAMPALQDPIFRRSVVYICEHNQNGAMGIIVNKPLENLQIEGILEKLKITPESRDSAIRLDKAVMLGGPLAEDRGFILHTPPSRFASSIRISDNTVITTSRDVLETLGTQQQPSDVLVALGYASWDKGQLEQELLDNAWLTAPADLNILFKTPIAERWREAAKLIGIDILTMPGVAGHALEHHHHHH | soluble
MNMAHTTTSMEIFGSPEQVWQLIGGFNSLPDWLPYIPSSKLTEGGRVRHLANPDGDTIIERLEVFNDKERYYTYSIMNAPFPVTNYLSTIQVKEGTESNTSLVEWSGTFTPVEVSDEEAINLFHGIYSDGLKALQQAFLDLEHHHHHH | soluble
MNMALISLAIDYKKSPIEVRSEFALSGLDVSMLYRSILAIDNVVHAVILSTCNRTEVYLEISDLRVVDDILVWWQGYVRNPNYKIKDYFKLRQGTEVIMHLMKLACGLESMVLGEPQILGQVKDSYTLSKKNHAIGKELDRVFQKVFATAKRVRSETRIGHCPVSVAFSAITLAKRQLDNISSKNVLIIGAGQTGELLFRHVTALAPKQIMLANRTIEKAQKITSAFRNASAHYLSELPQLIKKADIIIAAVNVLEYIVTCKYVGDKPRVFIDISIPQALDPKLGELEQNVYYCVDDINAVIEDNKDKRKYESSKAQKIIVKSLEEYLEKEKAIISNSAIKELFQKADGLVDLSLEKSLAKIRNGKDAEEIIKRFAYEIKKKVLHYPVVGMKEASKQGRSDCLVCMKRMFGLNVEK | not soluble
MNMDVNAVKNSTRGKHWFNLLTQGFNLIASGIDSLLIAEGQLGENKISVFCVVPDSHNHFPRARQGEVGLLEGWSLAQAIDQIIESDQNLTHKRGILCIVDVPSQAYGRREELLGIHQALAAAADSYVRARLAGHPVVSLLVGKSMSGAFLAHGYQANRILALKDQGVMVHAMGKESAARVTLRTVDELENLAANIPPMAYDIESYNSLGLLSGLLNVSHADHPTTSDIDYIQQTLSQTFQEIRNQGTSDLKHRLSAKNREASVHVRELLREQWS | not soluble
MNNGKLFLVGTPIGNLKDITLRALETLQNCDVIAAEDTRQSLKLLNHFDIKKPLISYHKFNENNRSSELMDMVREGKKVALVTDAGMPGISDPGSVIVEKFIENNLEFEVIPG | not soluble
MNNKKTGVLLVNLGTPTAPTAAAVKQFLSEFLHDKRVVDMNRFIWCPLLHGVILPIRAPKVAKLYESVWMEEGSPLLVYSQRQVKALEARLSMPVALGMTYGEPRIKSGIESLEQQGCDEIIILPLYPQYSRTTTAAVFDQIAKQYKTTPVLPNFTMIHNYHDHPLYIKALANSVRQSWERNGKGDYVLCSYHGIPQRFVDNGDIYAAHCERTTELLAQELGLTSEQIGMSYQSRFGREEWLKPYTSETLKALAPKGIKSLDIISPAFSSDCLETLEELSEECKEIFMESGGQKYTFIPCLNDDELHIEMMADIVSSKIFNK | not soluble
MNNMTDLKAIQARSLEMAEYFVAFCKEHDLLCYLCGGGAIGALRNKGFIPWDDDLDFFMPRKDYEKLAELWPRYADERYFLSKSHKDFVDRNLFITIRDKKTTCIKPYQQDLDLPHGLALDVLPLDYYPKNPAERKKQVRWALIYSLFCAQTIPEKHGDLMKWGSRILLGLTPKSLRYRIWKKAEKEMTKYDLADCDGITELCSGPGYMRNKYPITSFEDNLFLPFEGTEMPIPIGYDVYLRTAFGDYMTPPPADKQVPHHDAVIADMDKSYTEYKGEYGGLEHHHHHH | soluble
MNNNDLVAKLWKLCDNLRDGGVSYQNYVNELASLLFLKMCKETGQEADYLPEGYRWDDLKSRIGQDQMQFYRNLLVQLGSDEKKLVQAVFHNVSTTIEQPKQLTELVSYMDALDWYNGNHGKSRDDFGDMYEGLLQKNANETKSGAGQYFTPRPLIKTIIHLLKPQPREVVQDPAAGTAGFLIEADRYVKSQTNDLDDLDGDTQDFQIHRAFIGLELVPGTRRLALMNCLLHDIEGNLDHGGAIRLGNTLGSDGENLPKAHIVATNPPFGSAAGTNITRTFVHPTSNKQLCFMQHIIETLHPGGRAAVVVPDNVLFEGGKGTDIRRDLMDKCHLHTILRLPTGIFYAQGVKTNVLFFTKGTVTNPHQDKNCTDDVWVYDLRTNMPSFGKRTPFTEQHLQPFETVYGEDPHGLSPREEGEWSFNAEESEVADSEENKNTDQHQATSRWRKFSREWIRSAKSDSLDISWLKDKDSIDADSLPEPDVLAAEAMGELVQALGELDALMRELGAGDEADAQRQLLNEAFGEVKA | not soluble
MNNREIVQKLWNLCNVLRDDGITYHQYVTELTYLLFLKMMKETGQEYIIPEPYRWDVLAKKDGIELKTYYQQLLMALGQEENELLRQIYTDATSNIREPKNLEKIIRTIDALDWYNAKEEGLGALYEGLLEKNASELKSGAGQYFTPRVLIDVIVELVDPKPGERCHDPAAGTFGFMIAASRHVRAKTDDYFDLSEEEIRFQKYEAFSGVELVRDTHRLAVMNALLHDVHGDILLGDTLSPLGEQLKGYDVILTNPPFGTKKGGERATRTDFTFMTSNKQLNFLQHIYRALRPNGKARAAVVVPDNVLFEGGVGADIRRDLMDKCNVHTILRLPTGIFYAQGVKTNVLFFTRGETDTGNTKEVWVYDLRTNMPSFGKRNPLTKDHFAGFMKAYTAEDRHQVDDERWNVFTRDDIAKKGDSLDIGLIADESLSVYDNLPDPIDSAEEAVEKLELAISLLNEVIAELKAAEHPPRYEPAKTEMLHVAERLEVSER | not soluble
MNNSAFTFQTLHPDTIMDALFKQGIRVDSGLTPLNSYENRVYQFQDEERRRFVVKFYRPERWTADQILEEHQFALQLVNDEVPVAAPVAFNGQTLLNHQGFYFAVFPSVGGRQFEADNIDQMEAVGRYLGRMHQTGRKQLFIHRPTIGLNEYLIEPRKLFEDATLIPSGLKAAFLKATDELIAAVTAHWREDFTVLRLHGDCHAGNILWRDGPMFVDLDDARNGPAIQDLWMLLNGDKAQQRMQLETIIEAYEEFSEFDTAEIGLIEPLRAMRLVYYLAWLMRHWADPAFPKNFPWLTGEDYWLRQTATFIEQAKVLQEPPLQLTPMY | not soluble
MNNTIETILAHRSIRKFTAVPITDEQRQTIIQAGLAASSSSMLQVVSIVRVTDSEKRNELAQFAGNQAYVESAAEFLVFCIDYQRHATINPDVQADFTELTLIGAVDSGIMAQNCLLAAESMGLGGVYIGGLRNSAAQVDELLGLPENSAVLFGMCLGHPDQNPEVKPRLPAHVVVHENQYQELNLDDIQSYDQTMQAYYASRTSNQKLSTWSQEVTGKLAGESRPHILPYLNSKGLAKR | soluble
MNPKHSCTNFGADIPVNSQLIVTTSELRQKLKEKNKFILVDNRTWDEHIGKVSGYTYYDKKGRIPGALYGHSGSDSVSLEEYRNIDNTMRNKYEILEMWDKENIDVNKQLIFMCGSGWRAAEVLTYANVIGVENTSLYSDGWMGWSLDNSNLIEVGEHKLEHHHHHH | not soluble
